Results taken from publication PMC7367873, “Dissecting the sequence determinants for dephosphorylation by the catalytic subunits of phosphatases PP1 and PP2A” (Nature Communications, 2020).

Target: T1, PP1c (Homo sapiens, UniProt P62136)
T1 construct: His tag with TEV site (N, cleaved yes); intein (pTXB1) (C, cleaved yes); made in house; host or cells: E. coli BL21Star(DE3)pRARE
Experiment: Phosphoproteome dephosphorylation assay of HeLa Kyoto lysate with recombinant PP1c (TMT phosphoproteomics)
Format: biochemical
Details: 1 µM recombinant phosphatase, 1 h at 30 °C, 20 nM Calyculin A, three replicates
Method: For phosphoproteomics, HeLa Kyoto cells were incubated with 20 nM Calyculin A (CST, #9902) for 10–15 min. This time point was determined empirically to yield maximal phosphatase inhibition without cells showing pleiotropic effects. Subsequently, cells were placed on ice and washed twice with cold PBS and scraped in lysis buffer (100 mM NaCl, 10 mM Tris, 0.1% IGEPAL, 1 mM EDTA, 1 mM EGTA, 20 nM Calyculin A, 1x cOmplete Mini protease inhibitor cocktail (Sigma), 1 mM DTT, 1 mM MnCl2, pH 7.5). After 10 pushes through an injection needle (21 G, BD), lysate was cleared from the insoluble fraction by centrifugation (10 min, 10^4 rcf, 4 °C). Protein concentration was then determined by a Bradford Assay and equal amounts of 1 mg total protein were incubated with recombinant PP1c/PP2Ac or buffer at a final phosphatase concentration of 1 µM in a total volume of 200 µL for 1 h at 30 °C. Lysates were then immediately placed on ice. PhosStop […] (Roche) was added and proteins were denatured by adding urea to a final concentration of 8 M taking into account the volume increase. Samples were then snap-frozen in liquid nitrogen for storage and subsequent MS analysis.
Treated lysates were reduced (10 mM DTT, 30 °C, 30 min) and alkylated (50 mM chloroacetamide, room temperature, 30 min, in the dark), and then diluted to 1.3 M urea using 40 mM Tris-HCl (pH 7.6). […]

T1 sequence (P62136 whole entry): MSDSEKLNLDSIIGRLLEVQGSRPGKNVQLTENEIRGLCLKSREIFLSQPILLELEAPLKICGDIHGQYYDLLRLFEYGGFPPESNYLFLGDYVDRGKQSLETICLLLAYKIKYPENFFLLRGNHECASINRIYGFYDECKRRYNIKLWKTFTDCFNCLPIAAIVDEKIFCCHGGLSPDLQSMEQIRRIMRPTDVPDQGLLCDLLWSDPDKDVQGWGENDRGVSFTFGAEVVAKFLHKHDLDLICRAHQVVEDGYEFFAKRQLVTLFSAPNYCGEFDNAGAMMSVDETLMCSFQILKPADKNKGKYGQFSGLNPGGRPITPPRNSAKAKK

## PP1c: recombinant catalytic subunit of PP1
  number of class I p-sites dephosphorylated by PP1: 1967 p-sites
